Columns and labels:
[1] = target: GST-Casp8p41 (UniProt Q14790); experiment: SPR, GST-Bcl-2 R146A over immobilized Casp8p41
[2] = target: GST-Bcl-2 (human) (UniProt P10415); experiment: SPR, GST-Casp8p41 Val150Glu/Leu157Lys over immobilized GST-Bcl-2
[3] = target: GST-Mcl-1 (UniProt Q07820); experiment: SPR (Biacore 3000), GST-Mcl-1 binding to GST-Casp8p41, mean of 3 experiments; target Mcl-1
[4] = target: GST-Bcl-xL (UniProt Q07817); experiment: SPR (Biacore 3000), GST-Bcl-xL binding to GST-Casp8p41, mean of 3 experiments; target Bcl-xL
[5] = target: GST-Bcl-2 (human) (UniProt P10415); experiment: SPR (Biacore 3000), GST-Bcl-2 injected over immobilized GST-Casp8p41, mean of 3 experiments; target Bcl-2

Chain of GST-Bcl-2 (human) (P10415 1-218): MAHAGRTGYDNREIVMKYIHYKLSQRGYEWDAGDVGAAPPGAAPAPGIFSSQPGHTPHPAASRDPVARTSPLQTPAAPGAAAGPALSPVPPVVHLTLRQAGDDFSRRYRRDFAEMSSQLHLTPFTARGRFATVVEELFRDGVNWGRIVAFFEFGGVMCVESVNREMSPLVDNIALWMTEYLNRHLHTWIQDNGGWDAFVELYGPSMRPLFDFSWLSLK
Chain of GST-Mcl-1 (Q07820 1-327): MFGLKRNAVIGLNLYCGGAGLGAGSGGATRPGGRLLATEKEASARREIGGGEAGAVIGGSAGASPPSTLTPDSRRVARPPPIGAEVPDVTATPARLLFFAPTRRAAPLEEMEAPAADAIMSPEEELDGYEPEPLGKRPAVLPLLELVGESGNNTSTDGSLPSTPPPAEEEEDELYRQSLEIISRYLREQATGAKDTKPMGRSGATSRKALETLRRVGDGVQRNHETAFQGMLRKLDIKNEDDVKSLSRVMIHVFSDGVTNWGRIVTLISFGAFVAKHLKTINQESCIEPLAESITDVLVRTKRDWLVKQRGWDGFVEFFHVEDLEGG
Chain of GST-Bcl-xL (Q07817 1-212): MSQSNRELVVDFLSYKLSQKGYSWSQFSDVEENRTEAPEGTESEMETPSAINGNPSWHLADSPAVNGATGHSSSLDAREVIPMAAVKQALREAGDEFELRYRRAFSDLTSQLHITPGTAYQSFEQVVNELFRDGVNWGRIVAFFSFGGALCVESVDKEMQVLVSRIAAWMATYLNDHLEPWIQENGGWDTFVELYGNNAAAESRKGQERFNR

Question: Which fold decrease in affinity against wild-type Bcl-2 [1] does the source give for “GST-Bcl-2 R146A (from UniProt P10415 1-218)” here?
Answer: 250 fold

Question: How did the fold decrease in affinity against wild-type Casp8p41 [2] turn out when “GST-Casp8p41 Val150Glu/Leu157Lys (from UniProt Q14790 1-479)” was run?
Answer: > 300 fold

Question: How did the Kd [3] turn out when “GST-Casp8p41 (from UniProt Q14790 1-479)” was run?
Answer: 8 nM

Question: And the Kd [4]?
Answer: 11 nM

Question: What about the Kd [5] of the same substance?
Answer: 13 nM
